Results taken from patent US20250270304A1 (PHENOMIC AI, published 2025).
One block for each binder: values may come before it.

Columns and labels:
Inhibin A [1] = molecular target: T1, Inhibin A (Homo sapiens (Human), UniProt P05111 233-366; P08476 311-426); assay: ELISA, coated antigen, OD450
T1 sequence 1: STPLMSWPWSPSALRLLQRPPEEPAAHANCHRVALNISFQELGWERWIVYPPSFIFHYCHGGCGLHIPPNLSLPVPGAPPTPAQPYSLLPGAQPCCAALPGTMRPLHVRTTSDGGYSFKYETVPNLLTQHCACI
T1 sequence 2: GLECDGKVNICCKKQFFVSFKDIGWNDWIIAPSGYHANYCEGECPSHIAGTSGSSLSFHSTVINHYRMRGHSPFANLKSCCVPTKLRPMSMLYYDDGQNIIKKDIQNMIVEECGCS

Activin B [2] = molecular target: T2, Activin B (Homo sapiens (Human), UniProt P09529 293-407); assay: ELISA, coated antigen, OD450
T2 construct: also called Mature Activin B; mature Activin B
T2 sequence: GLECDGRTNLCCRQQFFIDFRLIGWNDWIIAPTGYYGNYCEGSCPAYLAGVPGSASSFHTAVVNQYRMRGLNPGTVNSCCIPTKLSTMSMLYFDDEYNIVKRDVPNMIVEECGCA

Latent Activin A [3] = molecular target: T3, Latent Activin A (human, UniProt P08476 21-426, limits assumed); assay: ELISA, coated antigen, OD450
T3 construct: also called INHBA latent
T3 sequence: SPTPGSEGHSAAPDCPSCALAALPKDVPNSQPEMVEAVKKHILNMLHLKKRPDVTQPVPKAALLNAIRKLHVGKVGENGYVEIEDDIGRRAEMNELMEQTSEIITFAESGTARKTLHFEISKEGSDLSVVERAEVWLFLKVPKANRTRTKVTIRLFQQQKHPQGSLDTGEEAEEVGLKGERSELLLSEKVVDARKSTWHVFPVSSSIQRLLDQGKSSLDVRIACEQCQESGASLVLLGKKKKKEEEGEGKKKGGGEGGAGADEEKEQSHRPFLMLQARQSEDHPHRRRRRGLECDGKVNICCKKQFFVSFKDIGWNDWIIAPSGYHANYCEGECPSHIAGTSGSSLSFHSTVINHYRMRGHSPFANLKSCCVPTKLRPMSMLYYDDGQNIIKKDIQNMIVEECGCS
Method: (§1) Antibodies were re-expressed in 40 mL cultures of Expi293 cells and purified using protein G magnetic sepharose beads (Cytiva, Marlborough, MA) to provide larger quantities for secondary screening. Secondary screening included dose responses in both functional assays described above (SMAD nuclear localization and fibroblast activations assays) as well as in binding assays to the same antigens listed in Table 3. Plates were coated with 25 μL of 3 μg/mL antigen in 384-well Maxisorp plates overnight at 4° C. with agitation. The next day, the samples in the plates were blocked with 70 μL blocking buffer (PBS+1% BSA+0.1% Tween-20) for 2 hours at room temperature. Plates were then washed three times with 100 μL of wash buffer (PBS+0.1% Tween-20). Primary antibodies in Expi293 expression medium were diluted 1:3 in blocking buffer, 25 μL added per well, and the plates were incubated for an hour at room temperature with agitation. Plates were then washed three times and 25 μL of secondary antibody (goat anti-Human IgG, HRP conjugated; Jackson Immunoresearch) diluted 1:5000 in blocking buffer was added for 30 minutes at room temperature. The wells in the plates were washed six times with wash buffer and TMB substrate was added followed by 1 M H3PO4.

Inhibin A [4] = molecular target: T1, Inhibin A; assay: ELISA, coated antigen, OD450; remark: listed apart in the source
Method: as §1

Mature Activin A [5] = molecular target: T4, Mature Activin A (human, UniProt P08476 311-426); assay: ELISA, coated antigen, OD450
T4 construct: also called active Activin A; INHBA mature
T4 sequence: T1 sequence 2
Method: as §1

Activin B [6] = molecular target: T2, Activin B; assay: ELISA, coated antigen, OD450; remark: listed apart in the source
Method: as §1

Latent Activin A [7] = molecular target: T3, Latent Activin A; assay: ELISA dose-response, coated antigen
Method: as §1

Mature Activin A [8] = molecular target: T4, Mature Activin A; assay: ELISA dose-response, coated antigen
Method: as §1

Activin B [9] = molecular target: T2, Activin B; assay: ELISA dose-response, coated antigen; dose-response ELISA, 1:3 dilutions from 133 nM; weak binding within the tested range
Method: as §1

Activin B [10] = molecular target: T2, Activin B; assay: ELISA, coated antigen, OD450; secondary screen, single OD 450 reading as fold over negative control; below the 1.40-fold cut-off
Method: as §1

Inhibin A [11] = molecular target: T1, Inhibin A; assay: ELISA dose-response, coated antigen (row 'Inhibin')
Method: as §1

Activin B [12] = molecular target: T2, Activin B; assay: ELISA, coated antigen, OD450; secondary screen, single OD 450 reading as fold over negative control; below the 1.40-fold cut-off, so not a binder
Method: as §1

- binding result (Activin B [2]): no binding (tested: 1.40-fold over BSA)
- fold-change of OD 450 over negative control (BSA) (Latent Activin A [3]): 5.91 fold
- fold-change of OD 450 over negative control (BSA) (Inhibin A [4]): 8.53 fold
- fold-change of OD 450 over negative control (BSA) (Mature Activin A [5]): 6.01 fold
- fold-change of OD 450 over negative control (BSA) (Activin B [6]): 0.58 fold
B2: AB326 (antibody, IgG1, V domains shown)
VH: QVQLVQSGAEVKKPGASVKVSCKVSGYTFTSSAISWVRQAPGKGLEWMGGIYPGSGHTIYAQKFQGRVTMTEDTSTDTAYMELSSLKSEDTAVYYCAREGDIFVMDVWGLGTAVTVSS
VL: DIQMTQSPSSVSASVGDRVTITCRASMDIRNDLAWYQQKPGKAPKLLIYDASKLETGVPSRFSGSGSGTDFTLTISSLQPEDFANYYCQQAKSFPPTFGGGTKVEIK

- binding result (Inhibin A [1]): no binding (tested: 1.40-fold over BSA)
- binding result (Activin B [2]): no binding (tested: 1.40-fold over BSA)
- fold-change of OD 450 over negative control (BSA) (Latent Activin A [3]): 1.9 fold
- fold-change of OD 450 over negative control (BSA) (Inhibin A [4]): 1.11 fold
- fold-change of OD 450 over negative control (BSA) (Mature Activin A [5]): 2.33 fold
- fold-change of OD 450 over negative control (BSA) (Activin B [6]): 1.04 fold
B4: AB340 (antibody, IgG1, V domains shown)
VH: EVQLVESGGGLVQPGGSLRLSCAASGFTASRNYMSWVRQAPGKGLELVASISGSGDYTYYPDSVKGRFTISRDNAKNSLYLQMNSLRAEDTAVYYCARSPRGPRLLGYYYGMDVWGQGTTVTVSS
VL: DIVMTQSPLSLPVTPGEPASISCRSSRSLVHGSGHNYLHWYLQKPGQSPQLLIYGASTRVAGVPDRFSGSGSGTDFTLKISRVEAEDVGVYYCMQGTQAPRTFGGGTKVEIK

Second part, the binder before the results:

B1: AB350 (antibody, IgG1, V domains shown)
VH: QVQLQESGPGLVKPSQTLSLTCTVSGVSLSDARMGVNWIRQPPGKGLEWIGYVSTTGTTDYNPSLKSRVTMSVDTSKNQFSLKVNSVTAADTAVYYCARAGYPDVWGKGTLVTVSS
VL: EIVMTQSPATLSLSPGERATLSCRASESVRSNLAWYQQKPGQAPRLLIYGASNRASGIPARFSGSGSGTDFTLTISSLEPEDFAVYYCQQYHTWPPWAFGGGTKVEIK
- binding result (Inhibin A [1]): no binding (tested: 1.40-fold over BSA)
- binding result (Activin B [2]): no binding (tested: 1.40-fold over BSA)
- fold-change of OD 450 over negative control (BSA) (Latent Activin A [3]): 7.33 fold
- fold-change of OD 450 over negative control (BSA) (Inhibin A [4]): 0.65 fold
- fold-change of OD 450 over negative control (BSA) (Mature Activin A [5]): 10.6 fold
- fold-change of OD 450 over negative control (BSA) (Activin B [6]): 0.74 fold

B3: Control 2 (antibody, human IgG4 S228P, kappa, V domains shown)
VH: QVQLQESGPGLVKPSETLSLTCTVSGGSFSSHFWSWIRQPPGKGLEWIGYILYTGGTSFNPSLKSRVSMSVGTSKNQFSLKLSSVTAADTAVYYCARARSGITFTGIIVPGSFDIWGQGTMVTVSS
VL: not shown
notes: also called garetosmab; Garetosmab
- EC50 (Latent Activin A [7]): 0.04 nM
- EC50 (Mature Activin A [8]): 0.07 nM
- EC50 (Activin B [9]): 11.2 nM
- fold-change of OD 450 over negative control (BSA) (Activin B [10]): 0.71 fold
- fold-change of OD 450 over negative control (BSA) (Latent Activin A [3]): 21.6 fold
- fold-change of OD 450 over negative control (BSA) (Inhibin A [4]): 15.9 fold
- fold-change of OD 450 over negative control (BSA) (Mature Activin A [5]): 21 fold
- EC50 (Inhibin A [11]): 2.08 nM

B5: AB342 (antibody, IgG1, V domains shown)
VH: EVQLVESGGGLVQPGGSLRLSCAASGFDFGEHWMSWVRQAPGKGLELVASIKGDASDTYYPDSVKGRFTISRDNAKNSLYLQMNSLRAEDTAVYYCVKDLSKQWLGIDYWGQGTLVTVSS
VL: DIVMTQSPLSLPVTPGEPASISCRSSQSLLHSNEKNYLHWYLQKPGQSPQLLIYDASKRASGVPDRFSGSGSGTDFTLKISRVEAEDVGVYYCVQDLHTPFTFGGGTKVEIK
- EC50 (Latent Activin A [7]): 48.6 nM
- EC50 (Mature Activin A [8]): 4.89 nM
- fold-change of OD 450 over negative control (BSA) (Latent Activin A [3]): 7 fold
- fold-change of OD 450 over negative control (BSA) (Inhibin A [4]): 0.36 fold
- fold-change of OD 450 over negative control (BSA) (Mature Activin A [5]): 7.81 fold
- fold-change of OD 450 over negative control (BSA) (Activin B [12]): 0.43 fold
